The Kd is the equilibrium constant for the complex coming apart. A higher Kd goes with a looser complex. For orientation: EC50 (read off the curve) means the concentration that produces a half-maximal response.

First the molecules themselves.
B2: human FcγRIIB extracellular domain protein (receptor, UniProt P31994 43-217, looked up)
chain: TPAAPPKAVLKLEPQWINVLQEDSVTLTCRGTHSPESDSIQWFHNGNLIPTHTQPSYRFKANNNDSGEYTCQTGQTSLSDPVHLTVLSEWLVLQTPHLEFQEGETIVLRCHSWKDKPLVKVTFFQNGKSKKFSRSDPNFSIPQANHSHSGDYHCTGNIGYTLYSSKPVTITVQAP
notes: extracellular domain; SPR: His-tagged, immobilised; ELISA: biotinylated; also called hFcγRIIB; CD32b
B3: human FcγRIIA-R131 extracellular domain protein (receptor, UniProt P12318 34-217, looked up)
chain: QAAAPPKAVLKLEPPWINVLQEDSVTLTCQGARSPESDSIQWFHNGNLIPTHTQPSYRFKANNNDSGEYTCQTGQTSLSDPVHLTVLSEWLVLQTPHLEFQEGETIMLRCHSWKDKPLVKVTFFQNGKSQKFSRLDPTFSIPQANHSHSGDYHCTGNIGYTLFSSKPVTITVQVPSMGSSSPMG
notes: extracellular domain; SPR: His-tagged, immobilised; ELISA: biotinylated; also called hFcγRIIA-R131; CD32a

For assay [1], the target named is B3. In words: SPR, Biacore T100, FcγR extracellular domain immobilised, 1:1 model. On the technique in general: Surface plasmon resonance follows binding to a sensor surface in real time, without labels.
Assay [2] deals with B2. The description is as above.
Assay [3] has as its target Fc fragment of heavy chain constant region G1 (hIgG1) (human, UniProt P0DOX5 234-449 = IgG part). The assay is described as above.
The target of assay [4] is T1, human FcγRIIIA-F158 extracellular domain protein (human, UniProt P08637 17-208).
T1 construct: extracellular domain; SPR: His-tagged, immobilised; also called hFcγRIIIA-F158; CD16a
In words: SPR, Biacore T100, FcγR extracellular domain immobilised.

Assay [5] concerns the target T2, human FcγRI extracellular domain protein (human, UniProt P12314 16-292).
T2 construct: extracellular domain; also called hFcγRI; CD64
In words: SPR, Biacore T100, FcγR extracellular domain immobilised, 1:1 model.

For assay [6], the target named is B3. In words: ELISA: plate coated with the anti-human CD40 antibody, biotinylated human FcγRIIA-R131 extracellular domain, streptavidin-HRP, A650 [FcγRIIA-R131 panels]. As for the experimental part:
(§1) The ELISA plate was coated with 100 μL antibody at an appropriate concentration overnight, supernatant being discarded. The plate was blocked with 1% BSA in PBS for 2 hours, followed by washing with PBST (PBS with 0.05% Tween 20). Then, biotinylated FcγR extracellular domain protein (Sino Biologic Inc., Beijing China) at a concentration as appropriate was added and incubated at room temperature for 1 hour, supernatant being discarded, followed by PBST wash. Streptavidin-HRP (BD Biosciences) was added and incubated at room temperature for 1 hour for detection of biotin protein. After removal of supernatant, developing solution was added to react for 20-40 minutes, and absorbance was determined at 650 nm (A650).
(In general: An ELISA detects its analyte on a solid surface through an enzyme-linked reagent.)

For assay [7], the target named is T3, recombinant human CD40 protein (human, UniProt P25942 21-193).
T3 construct: Bought; coated on the ELISA plate; also called hCD40
In words: ELISA: plate coated with recombinant human CD40, antibody in gradient dilutions, biotinylated anti-human Igκ light chain secondary antibody, SAV-HRP, A650. As for the experimental part:
(§2) For assay on anti-human CD40 antibodies, an ELISA plate was coated with recombinant human CD40 protein (Novoprotein Scientific Inc.) overnight at atmospheric temperature, blocked using 1% BSA at room temperature for 2 h, and then washed three times with PBST (0.05% Tween 20 in PBS). To each well was added […] gradient dilutions of the human agonistic CD40 antibody. The plate was incubated at room temperature for 1 h and washed four times with PBST. Then, 100 ng/ml biotinylated secondary antibody against human Igκ light chain was added, incubated at room temperature for 1 h and washed 4 times with PBST. SAV-HRP at an appropriate concentration was added, incubated at room temperature for 1 h. Then, chromogenic substrate was added to react for 5 minutes, and optical absorbance was determined at 650 nm.

The target of assay [8] is B3. The experiment in a line: ELISA: plate coated with the anti-human CD40 antibody, biotinylated human FcγRIIA-R131 extracellular domain, streptavidin-HRP, A650 [upper FcγRIIA-R131 panel]. As for the experimental part:
as §1

The target in assay [9] is T4, recombinant murine CD40 protein (murine, UniProt P27512 24-193, limits assumed).
T4 construct: Bought; coated on the ELISA plate; also called mouse CD40; mCD40
T4 sequence (looked up): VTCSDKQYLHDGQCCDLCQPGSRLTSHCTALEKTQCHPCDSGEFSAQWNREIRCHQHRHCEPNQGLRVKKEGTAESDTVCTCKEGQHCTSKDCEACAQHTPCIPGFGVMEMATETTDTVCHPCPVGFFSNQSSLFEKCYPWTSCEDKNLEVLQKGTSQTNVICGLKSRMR
The experiment in a line: ELISA: plate coated with recombinant murine CD40, antibody in gradient dilutions, HRP-labelled goat anti-human IgG-Fc secondary antibody, A650. On the procedure:
as §2
For assay on anti-murine CD40 antibodies, the process was the same, expect that the plate was coated with recombinant murine CD40 protein (Novoprotein Scientific Inc.) and HRP-labeled goat anti-human IgG-Fc antibody was used as the secondary antibody.

T3 sequence (P25942 21-193 limits assumed): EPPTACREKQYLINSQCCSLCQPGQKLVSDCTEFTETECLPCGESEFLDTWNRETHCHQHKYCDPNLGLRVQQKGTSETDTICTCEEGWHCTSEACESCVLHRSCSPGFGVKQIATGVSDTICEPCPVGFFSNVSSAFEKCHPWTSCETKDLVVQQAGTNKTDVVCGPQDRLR
T2 sequence (P12314 16-292): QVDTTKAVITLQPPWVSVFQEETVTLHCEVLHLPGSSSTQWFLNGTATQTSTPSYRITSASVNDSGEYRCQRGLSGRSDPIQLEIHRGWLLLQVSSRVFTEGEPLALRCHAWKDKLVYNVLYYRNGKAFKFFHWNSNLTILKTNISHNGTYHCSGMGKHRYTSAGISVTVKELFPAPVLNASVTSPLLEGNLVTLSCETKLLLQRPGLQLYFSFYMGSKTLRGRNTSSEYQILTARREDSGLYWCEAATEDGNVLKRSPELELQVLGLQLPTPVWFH
T1 sequence (P08637 17-208): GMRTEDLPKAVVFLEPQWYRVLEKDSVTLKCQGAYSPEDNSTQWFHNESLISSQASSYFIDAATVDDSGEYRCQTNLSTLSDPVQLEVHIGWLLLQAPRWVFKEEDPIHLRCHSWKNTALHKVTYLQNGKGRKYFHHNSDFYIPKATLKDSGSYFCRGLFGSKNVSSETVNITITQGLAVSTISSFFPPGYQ

B1: Fc fragment of heavy chain constant region G1-GASDALIE (hIgG1 G236A/S239D/A330L/I332E) (other)
chain: PELLAGPDVFLFPPKPKDTLMISRTPEVTCVVVDVSHEDPEVKFNWYVDGVEVHNAKTKPREEQYNSTYRVVSVLTVLHQDWLNGKEYKCKVSNKALPLPEEKTISKAKGQPREPQVYTLPPSRDELTKNQVSLTCLVKGFYPSDIAVEWESNGQPENNYKTTPPVLDSDGSFFLYSKLTVDKSRWQQGNVFSCSVMHEALHNHYTQKSLSLSPGK
On to B1, for which the dissociation constant (Kd) in assay [1] is 63 nM; in assay [2], 740 nM.
In the case of B2, in assay [3], the Kd came out at 3000 nM.
B3 gave a Kd in assay [3] of 1200 nM. This Kd lies about 2.5-fold lower than the previous one.

B4: Fc fragment of heavy chain constant region V9(H1) (hIgG1 G237D/P238D/P271G/A330R) (other)
chain: PELLGDDSVFLFPPKPKDTLMISRTPEVTCVVVDVSHEDGEVKFNWYVDGVEVHNAKTKPREEQYNSTYRVVSVLTVLHQDWLNGKEYKCKVSNKALPRPIEKTISKAKGQPREPQVYTLPPSRDELTKNQVSLTCLVKGFYPSDIAVEWESNGQPENNYKTTPPVLDSDGSFFLYSKLTVDKSRWQQGNVFSCSVMHEALHNHYTQKSLSLSPGK
Turning to B4, the binding result in assay [4] is reported as “no binding”. Also, the Kd in assay [5] was determined as 580 nM; in assay [1], 4100 nM; in assay [2], 94 nM.

B5: Anti-hCD40-hIgG1 (antibody)
heavy: not shown
light: DIQMTQSPSSVSASVGDRVTITCRASQGIYSWLAWYQQKPGKAPNLLIYTASTLQSGVPSRFSGSGSGTDFTLTISSLQPEDFATYYCQQANIFPLTFGGGTKVEIKRTVAAPSVFIFPPSDEQLKSGTASVVCLLNNFYPREAKVQWKVDNALQSGNSQESVTEQDSKDSTYSLSSTLTLSKADYEKHKVYACEVTHQGLSSPVTKSFNRGEC
notes: Human anti-human CD40 antibody with the light chain and VH of CP-870893; heavy chain constant region G1
Consider B5, for which the binding result in assay [6] is on record as “binds”. Further, the “EC50 (read off the curve)” value in assay [7] is roughly 0.2 µg/mL.

B6: Anti-hCD40-hIgG3 (antibody)
heavy: not shown
light: DIQMTQSPSSVSASVGDRVTITCRASQGIYSWLAWYQQKPGKAPNLLIYTASTLQSGVPSRFSGSGSGTDFTLTISSLQPEDFATYYCQQANIFPLTFGGGTKVEIKRTVAAPSVFIFPPSDEQLKSGTASVVCLLNNFYPREAKVQWKVDNALQSGNSQESVTEQDSKDSTYSLSSTLTLSKADYEKHKVYACEVTHQGLSSPVTKSFNRGEC
notes: Human anti-human CD40 antibody, heavy chain constant region G3
In the case of B6, in assay [7], the “EC50 (read off the curve)” value is roughly 0.1 µg/mL.

B7: Anti-hCD40-hIgG2(V11) (antibody)
heavy: not shown
light: DIQMTQSPSSVSASVGDRVTITCRASQGIYSWLAWYQQKPGKAPNLLIYTASTLQSGVPSRFSGSGSGTDFTLTISSLQPEDFATYYCQQANIFPLTFGGGTKVEIKRTVAAPSVFIFPPSDEQLKSGTASVVCLLNNFYPREAKVQWKVDNALQSGNSQESVTEQDSKDSTYSLSSTLTLSKADYEKHKVYACEVTHQGLSSPVTKSFNRGEC
notes: Human anti-human CD40 antibody, heavy chain constant region V11(H2), i.e. JAC1; also called anti-human CD40 antibody comprising JAC1
Regarding B7, the binding result in assay [8] was “binds”.

B8: Anti-hCD40-hIgG2-NA (antibody)
heavy: not shown
light: DIQMTQSPSSVSASVGDRVTITCRASQGIYSWLAWYQQKPGKAPNLLIYTASTLQSGVPSRFSGSGSGTDFTLTISSLQPEDFATYYCQQANIFPLTFGGGTKVEIKRTVAAPSVFIFPPSDEQLKSGTASVVCLLNNFYPREAKVQWKVDNALQSGNSQESVTEQDSKDSTYSLSSTLTLSKADYEKHKVYACEVTHQGLSSPVTKSFNRGEC
notes: Human anti-human CD40 antibody, heavy chain constant region G2-NA (N297A)
Turning to B8, the binding result in assay [6] was “no binding”.

B9: Anti-mCD40-hIgG1(V11) (antibody)
heavy: EVQLVESDGGLVQPGRSLKLPCAASGFTFSDYYMAWVRQAPTKGLEWVASISYDGSSTYYRDSVKGRFTISRDNAKSTLYLQMDSLRSEDTATYYCGRHSSYFDYWGQGVMVTVSSATTKGPSVFPLAPSSKSTSGGTAALGCLVKDYFPEPVTVSWNSGALTSGVHTFPAVLQSSGLYSLSSVVTVPSSSLGTQTYICNVNHKPSNTKVDKRVEPKSCDKTHTCPPCPAPELLGDDSVFLFPPKPKDTLMISRTPEVTCVVVDVSDEDGEVKFNWYVDGVEVHNAKTKPREEQYNSTYRVVSVLTVLHQDWLNGKEYKCKVSNKALPRPIEKTISKAKGQPREPQVYTLPPSRDELTKNQVSLTCLVKGFYPSDIAVEWESNGQPENNYKTTPPVLDSDGSFFLYSKLTVDKSRWQQGNVFSCSVMHEALHNHYTQKSLSLSPGK
light: DTVLTQSPALAVSPGERVTISCRASDSVSTLMHWYQQKPGQQPKLLIYLASHLESGVPARFSGSGSGTDFTLTIDPVEADDTATYYCQQSWNDPWTFGGGTKLELKRTVAAPSVFIFPPSDEQLKSGTASVVCLLNNFYPREAKVQWKVDNALQSGNSQESVTEQDSKDSTYSLSSTLTLSKADYEKHKVYACEVTHQGLSSPVTKSFNRGEC
notes: Chimeric anti-murine CD40 antibody, heavy chain constant region V11(H1)
Turning to B9, the “EC50 (read off the curve)” value in [9] was roughly 0.1 µg/mL.

B10: Anti-mCD40-hIgG2(V11) (antibody)
heavy: EVQLVESDGGLVQPGRSLKLPCAASGFTFSDYYMAWVRQAPTKGLEWVASISYDGSSTYYRDSVKGRFTISRDNAKSTLYLQMDSLRSEDTATYYCGRHSSYFDYWGQGVMVTVSSASTKGPSVFPLAPCSRSTSESTAALGCLVKDYFPEPVTVSWNSGALTSGVHTFPAVLQSSGLYSLSSVVTVPSSNFGTQTYTCNVDHKPSNTKVDKTVERKCCVECPPCPAPELLGDDSVFLFPPKPKDTLMISRTPEVTCVVVDVSDEDGEVKFNWYVDGVEVHNAKTKPREEQYNSTYRVVSVLTVLHQDWLNGKEYKCKVSNKALPRPIEKTISKAKGQPREPQVYTLPPSRDELTKNQVSLTCLVKGFYPSDIAVEWESNGQPENNYKTTPPVLDSDGSFFLYSKLTVDKSRWQQGNVFSCSVMHEALHNHYTQKSLSLSPGK
light: DTVLTQSPALAVSPGERVTISCRASDSVSTLMHWYQQKPGQQPKLLIYLASHLESGVPARFSGSGSGTDFTLTIDPVEADDTATYYCQQSWNDPWTFGGGTKLELKRTVAAPSVFIFPPSDEQLKSGTASVVCLLNNFYPREAKVQWKVDNALQSGNSQESVTEQDSKDSTYSLSSTLTLSKADYEKHKVYACEVTHQGLSSPVTKSFNRGEC
notes: Chimeric anti-murine CD40 antibody, heavy chain constant region V11(H2), i.e. JAC1; also called anti-murine CD40 antibody comprising JAC1
For B10, the “EC50 (read off the curve)” value in [9] is roughly 0.1 µg/mL.

(Values after patent publication US20190263918A1 (SHANGHAI JIAO TONG UNIVERSITY SCHOOL OF MEDICINE, published 2019).)
